Results as given in publication PMC11051671 (Science Advances, 2024).

Biological target: the molecule itself
Experiment: cryo-EM structure

B1: hZnT1-D47N/D255N double mutant (natural protein, human, UniProt Q9Y6M5 1-507, looked up)
chain: MGCWGRNRGRLLCMLALTFMFMVLEVVVSRVTSSLAMLSDSFHMLSNVLALVVALVAERFARRTHATQKNTFGWIRAEVMGALVNAIFLTGLCFAILLEAIERFIEPHEMQQPLVVLGVGVAGLLVNVLGLCLFHHHSGFSQDSGHGHSHGGHGHGHGLPKGPRVKSTRPGSSDINVAPGEQGPDQEETNTLVANTSNSNGLKLDPADPENPRSGDTVEVQVNGNLVREPDHMELEEDRAGQLNMRGVFLHVLGNALGSVIVVVNALVFYFSWKGCSEGDFCVNPCFPDPCKAFVEIINSTHASVYEAGPCWVLYLDPTLCVVMVCILLYTTYPLLKESALILLQTVPKQIDIRNLIKELRNVEGVEEVHELHVWQLAGSRIIATAHIKCEDPTSYMEVAKTIKDVFHNHGIHATTIQPEFASVGSKSSVVPCELACRTQCALKQCCGTLPQAPSGKDAEKTPAVSISCLELSNNLEKKPRRTKAENIPAVVIEIKNMPNKQPESSL
  stoichiometry N: 2
